The values below come from article PMC3985631, “The crystal structure of TDP-43 RRM1-DNA complex reveals the specific recognition for UG- and TG-rich nucleic acids”.

Series [1] concerns the target T1, TDP-43 hN12 WT (human, UniProt Q13148 1-259). Description: filter binding; Filter binding: 50 mM phosphate, 50 mM imidazole, 10 mM beta-mercaptoethanol, pH 7.5, room temperature, 30 min, 10 pmol 32P-labelled nucleic acid. Particulars: protein: recombinant; chain copies: 2; label: 5'-32P.
In series [2] the target is T1, TDP-43 hN12 WT. Description: filter binding; 2 uM protein; Filter binding: 50 mM phosphate, 50 mM imidazole, 10 mM beta-mercaptoethanol, pH 7.5, room temperature, 30 min, 10 pmol 32P-labelled nucleic acid. Conditions: protein: recombinant; chain copies: 2.
In series [3] the target is T2, TDP-43 RRM1 (hRRM1) WT (human, UniProt Q13148 101-191). Description: filter binding; Filter binding: 50 mM phosphate, 50 mM imidazole, 10 mM beta-mercaptoethanol, pH 7.5, room temperature, 30 min, 10 pmol 32P-labelled nucleic acid. Particulars: protein: recombinant; tags: N-terminal His (pQE30); label: 5'-32P.
The target in series [4] is T2, TDP-43 RRM1 (hRRM1) WT. Description: crystal structure 2.75 A; Filter binding: 50 mM phosphate, 50 mM imidazole, 10 mM beta-mercaptoethanol, pH 7.5, room temperature, 30 min, 10 pmol 32P-labelled nucleic acid. Conditions: protein: recombinant; tags: N-terminal His (pQE30).

T1 sequence (Q13148 1-259): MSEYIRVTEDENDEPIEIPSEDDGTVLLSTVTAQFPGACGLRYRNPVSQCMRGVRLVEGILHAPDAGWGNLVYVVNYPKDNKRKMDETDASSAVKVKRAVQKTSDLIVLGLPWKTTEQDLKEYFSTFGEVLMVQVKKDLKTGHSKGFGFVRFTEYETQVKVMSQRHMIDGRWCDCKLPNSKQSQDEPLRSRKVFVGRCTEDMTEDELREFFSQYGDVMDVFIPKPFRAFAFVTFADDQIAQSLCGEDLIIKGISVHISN
T2 sequence (Q13148 101-191): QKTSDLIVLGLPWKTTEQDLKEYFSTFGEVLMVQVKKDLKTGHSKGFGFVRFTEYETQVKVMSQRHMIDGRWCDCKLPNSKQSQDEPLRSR

B1: (UG)15 RNA (ssRNA)
RNA: UGUGUGUGUGUGUGUGUGUGUGUGUGUGUG
Regarding B1, the Kd in series [1] is 5.3 ± 1.2 nM.

B2: PS2 (ssRNA)
RNA: CGCGUGCCCCUG
Turning to B2, in series [2], the binding signal came to 6.2 ± 0.8 % bound.

B3: PS1 (ssRNA)
RNA: AGAGUGAAAAUG
As to B3, the binding signal in series [2] stood at 23.1 ± 0.8 % bound.

B4: (TG)15 DNA (ssDNA)
DNA: TGTGTGTGTGTGTGTGTGTGTGTGTGTGTG
As to B4, the Kd in series [3] is 20.6 ± 1.8 nM.

B5: 10-nt Se-labelled ssDNA (ssDNA)
DNA: GTTGAGCGTT
modifications: 2'-methylseleno-adenosine at A5
For B5, the binding result in series [4] is listed as “binds”.

B6: (UG)6 RNA (ssRNA)
RNA: UGUGUGUGUGUG
Regarding B6, the binding signal in series [2] was 67.9 ± 1.9 % bound.

B7: (CA)6 RNA (ssRNA)
RNA: CACACACACACA
Take B7: the binding signal in series [2] is 0.6 ± 1 % bound.
